Results from the RNAGym collection of RNA variant scans (doi:10.7554/elife.90254).

B1: OR4K15 (parent)
chain: GUUAACGGUCAUAGGCCAUGGAAACUAGGAGCACCAUUUCGCUGCCAGUGAAGAAAUGAACAAAGAAAAUCUGGGCCAGGCAGGCAUCAAAAGAAAUAGUCUUGCGCUCAACCAGAAAGUCUGUAAUCAUUUUAAGGGUA

Variants of: B1
Assay: self-cleavage, relative activity (ratio to wild type); higher = more cleavage; in vitro, sequencing; the parent is a self-cleaving ribozyme

In order of falling self-cleavage:
1. G50U C121A  2.92
2. U43G U100C  2.82
3. A90G U127A  2.66
4. A68U U127A  2.58
5. A24U A62G  2.33
6. U127A A134G  2.3
7. A94U G119A  2.29
8. U19A A51U  2.15
9. A117G C128U  2.12
10. A36G A63C  2.09
11. A33U A95U  2
12. U49C A69U  2
13. A55U G58U  1.98
14. A63C A140G  1.96
15. U39A U43C  1.95
16. A18G A69G  1.9
17. G31C U122A  1.89
18. A66U A95G  1.87
19. G44U G137U  1.87
20. A36C U100C  1.85
21. U43A G53A  1.84
22. A69U U120A  1.84
23. U102C  1.82
24. A54U A59G  1.75
25. A96U G138U  1.75
26. U9C A96U  1.72
27. A18G A86C  1.68
28. G44A A117G  1.66
29. U9C U120C  1.66
30. U9C A18G  1.65
31. A24C A94G  1.63
32. A23G A140C  1.55
33. A13U A51G  1.53
34. A68U U122C  1.51
35. A56G A68G  1.51
36. A51G A62U  1.49
37. A30G A117G  1.48
38. U49C A92G  1.47
39. A54U U122A  1.45
40. C34U U130C  1.44
41. A91U U122C  1.4
42. A24G U130C  1.38
43. A51U U103C  1.35
44. U37C U132A  1.34
45. U2C A117G  1.33
46. A13C  1.33
47. A33U A86G  1.33
48. A13G G123U  1.33
49. U122A C128A  1.32
50. U2C A64U  1.3
51. A23G A92C  1.29
52. U49A A92G  1.28
53. U38A A94U  1.28
54. A27G U37C  1.27
55. A51U U122C  1.26
56. A27U U57C  1.25
57. A18G A129G  1.25
58. U12A A52U  1.23
59. G1A U9G  1.23
60. U70C A117G  1.21
61. U9C A126G  1.19
62. A18G A68G  1.16
63. G21A U38G  1.15
64. U37C U131C  1.15
65. A55U U130C  1.13
66. U12A A94G  1.12
67. A64G A110U  1.1
68. A22U A114G  1.09
69. A4G A62G  1.09
70. U43A A98G  1.07
71. G28A U70A  1.02
72. A30G U43A  1.01
73. A55G A60G  1
74. U122A A135U  1
75. A13G A67G  1
76. A22G A30G  0.99
77. A24G A110U  0.99
78. U2C U3C  0.98
79. A91G  0.97
80. A18C U130C  0.96
81. A4G A116G  0.94
82. A33G A91U  0.94
83. C46U A82G  0.94
84. A4C U43A  0.94
85. U12C A47U  0.93
86. A5G G48U  0.93
87. C32U U103C  0.91
88. A68U U132G  0.9
89. A118G  0.89
90. U9A A62U  0.88
91. U120C U139A  0.85
92. A51C A117G  0.81
93. A52G U70C  0.79
94. A30G U102A  0.78
95. U49C A91G  0.77
96. U124A A126G  0.76
97. C35A A66G  0.76
98. A18G G50A  0.74
99. U127C A140G  0.73
100. A94G A140U  0.72
101. U2C C16U  0.69
102. A59U U124C  0.69
103. G28A A33G  0.69
104. U9G A129G  0.65
105. A62G A126C  0.62
106. A22G A89G  0.62
107. U70C U87A  0.61
108. U124A U132G  0.61
109. A118G G123A  0.58
110. U26C A135U  0.57
111. U2C A125G  0.55
112. A55C A82G  0.53
113. U102A A135U  0.49
114. C40U A78G  0.44
115. U127A U130C  0.43
116. U12A U70C  0.41
117. A56G U97C  0.4
118. U19G A78C  0.39
119. A69G A125G  0.39
120. A23G A117C  0.36
121. A4G G74C  0.36
122. C40U A78U  0.32
123. U57C A66G  0.31
124. A78U A92G  0.29
125. U9G U12C  0.29
126. A59U A78G  0.27
127. A114G A140G  0.26
128. G1A A90G  0.26
129. A52C A114G  0.25
130. A116G U131A  0.25
131. A13U A82U  0.24
132. A33G G83U  0.24
133. G84C U127C  0.22
134. A117C A135G  0.2
135. A66U G75C  0.18
136. A92G A110G  0.17
137. C42A A110G  0.16
138. A114G U122C  0.16
139. G115C  0.14
140. U39A G138A  0.14
141. A33G G80A  0.12
142. A47G A111U  0.12
143. A94U A111U  0.12
144. U87C C113U  0.12
145. U2C A110G  0.11
146. G79A U87C  0.1
147. A86U A110G  0.09
148. C40U A116C  0.08
149. A24U U108A  0.07
150. U72C A116G  0.07
151. U2A G106A  0.06
152. A30G A111U  0.05
153. A116C A129G  0.05
154. A114U A118G  0.05
155. U9G U108C  0.05
156. C113U U130C  0.04
157. A114U U120C  0.03
158. A23G U108C  0.03
159. A24U A111G  0.03
160. C105A U124A  0.02
161. U19A A111G  0.02
162. C76U U124A  0.02
163. A18C U108C  0.01
164. G106U U108A  0.01
165. U108C C128G  0.01
166. C17U U108C  0
167. U39A C112G  0
